# In US20220267415A1:
# Biological target: SARS-CoV-2 spike protein, wild type, on live virus (SARS-CoV-2-mNG / USA-WA1/2020) (SARS-CoV-2) (UniProt P0DTC2)
# Test: cell-based or functional assay
substance,measurement,value
IgG antibody carrying the VH and VL regions of Sotrovimab (S309),Neutralization EC50,0.17 µg/mL
